Laboratory results: patent publication US20250250314A1 (XILIO DEVELOPMENT, published 2025)

Biological target: PD-1 from the PD-1 effector cells (UniProt Q15116 25-288, limits assumed)
Assay: cell-based or functional assay

PD-1 from the PD-1 effector cells, sequence (Q15116 25-288 limits assumed): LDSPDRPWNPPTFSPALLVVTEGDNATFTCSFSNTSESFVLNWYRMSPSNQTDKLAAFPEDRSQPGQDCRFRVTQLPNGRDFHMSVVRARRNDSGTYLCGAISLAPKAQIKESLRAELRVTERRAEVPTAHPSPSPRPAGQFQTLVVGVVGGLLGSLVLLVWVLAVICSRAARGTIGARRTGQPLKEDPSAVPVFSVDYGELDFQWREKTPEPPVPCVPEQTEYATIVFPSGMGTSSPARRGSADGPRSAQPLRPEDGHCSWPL

Binder	EC50 (nM), fold induction of luminescence in the PD-1/PD-L1 Blockade Bioassay
UCM5 (other) heavy 1: QVQLVQSGVEVKKPGASVKVSCKASGYTFTNYYMYWVRQAPGQGLEWMGGINPSNGGTNFNEKFKNRVTLTTDSSTTTAYMELKSLQFDDTAVYYCARRDYRFDMGFDYWGQGTTVTVSSASTKGPSVFPLAPSSKSTSGGTAALGCLVKDYFPEPVTVSWNSGALTSGVHTFPAVLQSSGLYSLSSVVTVPSSSLGTQTYICNVNHKPSNTKVDKKVEPKSCDKTHTCPPCPAPELLGGPSVFLFPPKPKDTLMISRTPEVTCVVVDVSHEDPEVKFNWYVDGVEVHNAKTKPREEQYASTYRVVSVLTVLHQDWLNGKEYKCKVSNKALPAPIEKTISKAKGQPREPQVYTLPPCRDELTKNQVSLWCLVKGFYPSDIAVEWESNGQPENNYKTTPPVLDSDGSFFLYSKLTVDKSRWQQGNVFSCSVMHEALHNRFTQKSLSLSPGGGSSPPGGGSSGGGSGPAPTSSSTKKTQLQLEHLLLDLQMILNGINNYKNPKLTAMLTAKFAMPKKATELKHLQCLEEALKPLEEVLNLAQSKNFHLRPRDLISNINVIVLELKGSETTFMCEYADETATIVEFLNRWITFAQSIISTLT heavy 2: QVQLVQSGVEVKKPGASVKVSCKASGYTFTNYYMYWVRQAPGQGLEWMGGINPSNGGTNFNEKFKNRVTLTTDSSTTTAYMELKSLQFDDTAVYYCARRDYRFDMGFDYWGQGTTVTVSSASTKGPSVFPLAPSSKSTSGGTAALGCLVKDYFPEPVTVSWNSGALTSGVHTFPAVLQSSGLYSLSSVVTVPSSSLGTQTYICNVNHKPSNTKVDKKVEPKSCDKTHTCPPCPAPELLGGPSVFLFPPKPKDTLMISRTPEVTCVVVDVSHEDPEVKFNWYVDGVEVHNAKTKPREEQYASTYRVVSVLTVLHQDWLNGKEYKCKVSNKALPAPIEKTISKAKGQPREPQVCTLPPSRDELTKNQVSLSCAVKGFYPSDIAVEWESNGQPENNYKTTPPVLDSDGSFFLVSKLTVDKSRWQQGNVFSCSVMHEALHNHYTAPAGLIVPYNGGSSGSGGSGGGSGSGGGEVQLVESGGGLVQPGGSLRLSCAASGSIFSINVMGWYRQAPGKQRELVAAISSGGSTNYADSVKGRFTISRDNAKNTVYLQMNSLKPEDTAVYYCMYASSWYEDETDYWGQGTQVTVSS light: EIVLTQSPATLSLSPGERATLSCRASKGVSTSGYSYLHWYQQKPGQAPRLLIYLASYLESGVPARFSGSGSGTDFTLTISSLEPEDFAVYYCQHSRDLPLTFGGGTKVEIKRTVAAPSVFIFPPSDEQLKSGTASVVCLLNNFYPREAKVQWKVDNALQSGNSQESVTEQDSKDSTYSLSSTLTLSKADYEKHKVYACEVTHQGLSSPVTKSFNRGEC	1.15 nM
UCM6 (other) heavy 1: QVQLVQSGVEVKKPGASVKVSCKASGYTFTNYYMYWVRQAPGQGLEWMGGINPSNGGTNFNEKFKNRVTLTTDSSTTTAYMELKSLQFDDTAVYYCARRDYRFDMGFDYWGQGTTVTVSSASTKGPSVFPLAPSSKSTSGGTAALGCLVKDYFPEPVTVSWNSGALTSGVHTFPAVLQSSGLYSLSSVVTVPSSSLGTQTYICNVNHKPSNTKVDKKVEPKSCDKTHTCPPCPAPELLGGPSVFLFPPKPKDTLMISRTPEVTCVVVDVSHEDPEVKFNWYVDGVEVHNAKTKPREEQYASTYRVVSVLTVLHQDWLNGKEYKCKVSNKALPAPIEKTISKAKGQPREPQVYTLPPCRDELTKNQVSLWCLVKGFYPSDIAVEWESNGQPENNYKTTPPVLDSDGSFFLYSKLTVDKSRWQQGNVFSCSVMHEALHNRFTQKSLSLSPGGGSSPPGGGSSGGGSGPAPTSSSTKKTQLQLEHLLLDLQMILNGINNYKNPKLTAMLTAKFAMPKKATELKHLQCLEEALKPLEEVLNLAQSKNFHLRPRDLISNINVIVLELKGSETTFMCEYADETATIVEFLNRWITFAQSIISTLT heavy 2: QVQLVQSGVEVKKPGASVKVSCKASGYTFTNYYMYWVRQAPGQGLEWMGGINPSNGGTNFNEKFKNRVTLTTDSSTTTAYMELKSLQFDDTAVYYCARRDYRFDMGFDYWGQGTTVTVSSASTKGPSVFPLAPSSKSTSGGTAALGCLVKDYFPEPVTVSWNSGALTSGVHTFPAVLQSSGLYSLSSVVTVPSSSLGTQTYICNVNHKPSNTKVDKKVEPKSCDKTHTCPPCPAPELLGGPSVFLFPPKPKDTLMISRTPEVTCVVVDVSHEDPEVKFNWYVDGVEVHNAKTKPREEQYASTYRVVSVLTVLHQDWLNGKEYKCKVSNKALPAPIEKTISKAKGQPREPQVCTLPPSRDELTKNQVSLSCAVKGFYPSDIAVEWESNGQPENNYKTTPPVLDSDGSFFLVSKLTVDKSRWQQGNVFSCSVMHEALHNHYTPANLVAPDPGGGSSGSGGSGGGSGSGGGEVQLVESGGGLVQPGGSLRLSCAASGSIFSINVMGWYRQAPGKQRELVAAISSGGSTNYADSVKGRFTISRDNAKNTVYLQMNSLKPEDTAVYYCMYASSWYEDETDYWGQGTQVTVSS light: EIVLTQSPATLSLSPGERATLSCRASKGVSTSGYSYLHWYQQKPGQAPRLLIYLASYLESGVPARFSGSGSGTDFTLTISSLEPEDFAVYYCQHSRDLPLTFGGGTKVEIKRTVAAPSVFIFPPSDEQLKSGTASVVCLLNNFYPREAKVQWKVDNALQSGNSQESVTEQDSKDSTYSLSSTLTLSKADYEKHKVYACEVTHQGLSSPVTKSFNRGEC	1.2 nM
